Reference: patent US20160200782A1

Assays:
Assay in all cases: cell-based or functional assay
CaMKIIδ(h) (human) = CaMKIIδ(h) (human) (UniProt Q13557)
MRCKβ(h) (human) = MRCKβ(h) (human) (UniProt Q9Y5S2)
JNK1α1(h) (human) = JNK1α1(h) (human) (UniProt P45983)
EphB1(h) (human) = EphB1(h) (human) (UniProt P54762)
GSK3β(h) (human) = GSK3β(h) (human) (UniProt P49841)
WNK3(h) (human) = WNK3(h) (human) (UniProt Q9BYP7)
LKB1(h) (human) = LKB1(h) (human) (UniProt Q15831)
PAK6(h) (human) = PAK6(h) (human) (UniProt Q9NQU5)
MELK(h) (human) = MELK(h) (human) (UniProt Q14680)
GRK5(h) (human) = GRK5(h) (human) (UniProt P34947)
CK2α2(h) (human) = CK2α2(h) (human) (UniProt P19784)
Fms(Y969C)(h) (human) = Fms(Y969C)(h) (human) (UniProt P07333)
MSK2(h) (human) = MSK2(h) (human) (UniProt O75676)
MAPK1(h) (human) = MAPK1(h) (human) (UniProt P28482)
CLK2(h) (human) = CLK2(h) (human) (UniProt P49760)
MST3(h) (human) = MST3(h) (human) (UniProt Q9Y6E0)
Ros(h) (human) = Ros(h) (human) (UniProt P08922)
FGFR1(V561M)(h) (human) = FGFR1(V561M)(h) (human) (UniProt P11362)
TrkA(h) (human) = TrkA(h) (human) (UniProt P04629)
MSSK1(h) (human) = MSSK1(h) (human) (UniProt Q9UPE1)
CK1γ2(h) (human) = CK1γ2(h) (human) (UniProt P78368)
CaMKI(h) (human) = CaMKI(h) (human) (UniProt Q14012)
Tie2(R849W)(h) (human) = Tie2(R849W)(h) (human) (UniProt Q02763)
DDR2(h) (human) = DDR2(h) (human) (UniProt Q16832)
CK1γ1(h) (human) = CK1γ1(h) (human) (UniProt Q9HCP0)
MRCKα(h) (human) = MRCKα(h) (human) (UniProt Q5VT25)
TAK1(h) (human) = TAK1(h) (human) (UniProt O43318)
SGK2(h) (human) = SGK2(h) (human) (UniProt Q9HBY8)
Plk1(h) (human) = Plk1(h) (human) (UniProt P53350)
EphA2(h) (human) = EphA2(h) (human) (UniProt P29317)
MKK7β(h) (human) = MKK7β(h) (human) (UniProt O14733)
Fgr(h) (human) = Fgr(h) (human) (UniProt P09769)
IGF-1R(h) (human) = IGF-1R(h) (human) (UniProt P08069)
[1] = biological target: IGF-1R(h), activated (human) (UniProt P08069)
CHK2(R145W)(h) (human) = CHK2(R145W)(h) (human) (UniProt O96017)
CK1γ3(h) (human) = CK1γ3(h) (human) (UniProt Q9Y6M4)
FGFR2(N549H)(h) (human) = FGFR2(N549H)(h) (human) (UniProt P21802)
BrSK2(h) (human) = BrSK2(h) (human) (UniProt Q8IWQ3)
Yes(h) (human) = Yes(h) (human) (UniProt P07947)
PAK3(h) (human) = PAK3(h) (human) (UniProt O75914)

Sequence of MRCKα(h) (human) (Q5VT25 1-473 limits assumed): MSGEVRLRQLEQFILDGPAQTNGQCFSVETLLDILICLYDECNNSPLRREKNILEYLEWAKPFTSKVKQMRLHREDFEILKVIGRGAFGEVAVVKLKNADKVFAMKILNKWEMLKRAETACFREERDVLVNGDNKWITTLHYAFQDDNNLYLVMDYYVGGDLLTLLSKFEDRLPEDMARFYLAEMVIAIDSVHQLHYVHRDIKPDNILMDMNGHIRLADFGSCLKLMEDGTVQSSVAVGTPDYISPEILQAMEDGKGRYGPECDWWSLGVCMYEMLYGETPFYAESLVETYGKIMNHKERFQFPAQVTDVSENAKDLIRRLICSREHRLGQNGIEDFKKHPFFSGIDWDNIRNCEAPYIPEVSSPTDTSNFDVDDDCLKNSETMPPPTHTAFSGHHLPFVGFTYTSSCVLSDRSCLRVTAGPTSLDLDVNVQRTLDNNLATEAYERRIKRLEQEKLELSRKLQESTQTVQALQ
Sequence of CaMKI(h) (human) (Q14012 whole entry): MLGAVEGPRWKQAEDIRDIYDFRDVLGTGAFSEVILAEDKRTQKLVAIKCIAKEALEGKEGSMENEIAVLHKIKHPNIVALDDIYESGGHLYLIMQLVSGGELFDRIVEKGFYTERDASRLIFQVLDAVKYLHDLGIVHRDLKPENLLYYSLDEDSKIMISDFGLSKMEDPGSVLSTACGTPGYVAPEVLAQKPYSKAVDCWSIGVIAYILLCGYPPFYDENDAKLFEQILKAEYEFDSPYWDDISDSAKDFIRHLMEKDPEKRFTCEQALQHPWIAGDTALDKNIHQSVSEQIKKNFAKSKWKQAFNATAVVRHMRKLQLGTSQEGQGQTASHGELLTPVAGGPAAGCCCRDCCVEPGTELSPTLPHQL
Sequence of MST3(h) (human) (Q9Y6E0 whole entry): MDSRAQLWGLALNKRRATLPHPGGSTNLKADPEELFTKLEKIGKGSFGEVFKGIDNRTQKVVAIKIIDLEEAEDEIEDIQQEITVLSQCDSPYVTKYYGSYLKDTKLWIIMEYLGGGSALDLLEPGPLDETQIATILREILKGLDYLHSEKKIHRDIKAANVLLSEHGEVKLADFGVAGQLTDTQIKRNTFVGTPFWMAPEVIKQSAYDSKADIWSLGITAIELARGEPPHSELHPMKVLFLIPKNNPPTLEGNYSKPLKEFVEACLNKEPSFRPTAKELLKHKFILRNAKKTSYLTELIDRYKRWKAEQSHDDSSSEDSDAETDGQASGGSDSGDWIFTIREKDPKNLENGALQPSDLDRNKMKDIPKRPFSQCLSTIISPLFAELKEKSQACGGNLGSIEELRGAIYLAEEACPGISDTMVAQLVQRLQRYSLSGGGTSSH
Sequence of Ros(h) (human) (P08922 1883-2347 limits assumed): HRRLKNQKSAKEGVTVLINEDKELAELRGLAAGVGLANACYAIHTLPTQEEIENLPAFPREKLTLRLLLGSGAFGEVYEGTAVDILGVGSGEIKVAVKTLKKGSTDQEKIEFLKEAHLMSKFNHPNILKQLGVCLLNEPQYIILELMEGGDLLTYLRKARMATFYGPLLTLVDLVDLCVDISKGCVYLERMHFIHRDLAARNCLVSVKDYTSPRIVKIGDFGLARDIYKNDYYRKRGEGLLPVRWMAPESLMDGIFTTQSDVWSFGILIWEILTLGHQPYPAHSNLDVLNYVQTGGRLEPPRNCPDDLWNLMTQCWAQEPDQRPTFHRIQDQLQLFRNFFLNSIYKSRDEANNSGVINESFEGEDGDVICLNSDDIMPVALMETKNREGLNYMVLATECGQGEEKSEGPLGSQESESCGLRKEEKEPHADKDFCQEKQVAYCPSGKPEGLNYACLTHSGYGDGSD
Sequence of SGK2(h) (human) (Q9HBY8 whole entry): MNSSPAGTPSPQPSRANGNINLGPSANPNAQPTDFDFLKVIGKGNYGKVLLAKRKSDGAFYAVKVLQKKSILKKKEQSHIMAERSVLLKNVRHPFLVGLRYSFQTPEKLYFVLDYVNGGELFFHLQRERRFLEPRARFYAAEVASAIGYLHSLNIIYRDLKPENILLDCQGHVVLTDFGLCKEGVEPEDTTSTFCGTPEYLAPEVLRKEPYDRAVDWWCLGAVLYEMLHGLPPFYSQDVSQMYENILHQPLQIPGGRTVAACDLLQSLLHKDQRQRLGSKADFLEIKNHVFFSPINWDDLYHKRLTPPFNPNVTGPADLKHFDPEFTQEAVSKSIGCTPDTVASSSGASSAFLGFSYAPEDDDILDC
Sequence of MRCKβ(h) (human) (Q9Y5S2 1-473 limits assumed): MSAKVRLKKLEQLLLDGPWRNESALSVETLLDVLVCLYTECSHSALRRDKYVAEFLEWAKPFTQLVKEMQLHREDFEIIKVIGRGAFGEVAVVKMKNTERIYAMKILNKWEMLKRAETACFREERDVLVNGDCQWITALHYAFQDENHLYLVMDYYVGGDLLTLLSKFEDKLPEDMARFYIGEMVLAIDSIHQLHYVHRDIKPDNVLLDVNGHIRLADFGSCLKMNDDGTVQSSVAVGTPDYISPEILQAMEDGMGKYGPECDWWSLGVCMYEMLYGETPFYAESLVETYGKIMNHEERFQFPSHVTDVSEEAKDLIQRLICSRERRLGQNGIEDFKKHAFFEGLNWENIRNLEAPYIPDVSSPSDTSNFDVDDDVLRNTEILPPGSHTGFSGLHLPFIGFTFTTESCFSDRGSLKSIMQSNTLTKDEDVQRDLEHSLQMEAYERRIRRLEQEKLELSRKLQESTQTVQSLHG
Sequence of MELK(h) (human) (Q14680 1-340 limits assumed): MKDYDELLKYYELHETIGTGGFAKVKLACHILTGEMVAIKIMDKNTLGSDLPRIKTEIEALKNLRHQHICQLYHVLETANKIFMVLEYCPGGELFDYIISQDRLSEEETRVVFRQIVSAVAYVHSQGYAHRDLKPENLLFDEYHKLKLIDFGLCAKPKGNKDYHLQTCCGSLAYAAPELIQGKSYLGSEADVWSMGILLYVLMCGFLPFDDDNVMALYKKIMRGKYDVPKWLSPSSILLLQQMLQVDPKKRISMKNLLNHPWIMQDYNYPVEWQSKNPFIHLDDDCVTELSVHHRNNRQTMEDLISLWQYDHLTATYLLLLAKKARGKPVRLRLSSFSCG
Sequence of LKB1(h) (human) (Q15831 whole entry): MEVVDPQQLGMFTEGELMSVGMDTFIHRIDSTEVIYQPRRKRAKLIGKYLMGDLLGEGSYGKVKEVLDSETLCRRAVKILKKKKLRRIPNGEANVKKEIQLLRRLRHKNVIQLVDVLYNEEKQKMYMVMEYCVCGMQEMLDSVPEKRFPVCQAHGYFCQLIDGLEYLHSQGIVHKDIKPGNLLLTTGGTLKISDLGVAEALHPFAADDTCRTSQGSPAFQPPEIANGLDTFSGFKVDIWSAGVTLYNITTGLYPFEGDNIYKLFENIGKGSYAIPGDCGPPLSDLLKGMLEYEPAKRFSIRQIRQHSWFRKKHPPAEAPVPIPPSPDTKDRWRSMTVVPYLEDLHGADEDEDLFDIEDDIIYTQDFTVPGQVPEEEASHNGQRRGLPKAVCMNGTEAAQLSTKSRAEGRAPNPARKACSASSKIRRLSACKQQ
Sequence of MSK2(h) (human) (O75676 whole entry): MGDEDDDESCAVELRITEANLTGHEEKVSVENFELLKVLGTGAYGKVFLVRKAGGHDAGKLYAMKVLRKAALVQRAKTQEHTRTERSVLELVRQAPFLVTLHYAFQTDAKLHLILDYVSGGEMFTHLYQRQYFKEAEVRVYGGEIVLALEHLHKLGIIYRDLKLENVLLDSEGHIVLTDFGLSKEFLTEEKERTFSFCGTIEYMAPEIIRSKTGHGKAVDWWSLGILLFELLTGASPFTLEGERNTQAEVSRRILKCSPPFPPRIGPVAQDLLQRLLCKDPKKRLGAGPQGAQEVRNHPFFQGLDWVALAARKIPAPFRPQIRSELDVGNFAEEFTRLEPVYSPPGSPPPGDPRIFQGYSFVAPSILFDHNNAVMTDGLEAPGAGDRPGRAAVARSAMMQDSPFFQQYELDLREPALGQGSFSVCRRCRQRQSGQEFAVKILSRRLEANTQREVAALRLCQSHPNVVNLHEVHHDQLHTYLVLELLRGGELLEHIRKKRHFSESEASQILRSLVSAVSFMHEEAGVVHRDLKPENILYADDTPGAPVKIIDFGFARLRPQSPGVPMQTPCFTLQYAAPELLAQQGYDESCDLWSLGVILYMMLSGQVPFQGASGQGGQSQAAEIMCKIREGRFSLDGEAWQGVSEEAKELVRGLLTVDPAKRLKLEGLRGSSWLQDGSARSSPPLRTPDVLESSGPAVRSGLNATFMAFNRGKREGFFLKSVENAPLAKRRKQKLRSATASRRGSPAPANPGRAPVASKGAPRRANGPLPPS
Sequence of DDR2(h) (human) (Q16832 422-855 limits assumed): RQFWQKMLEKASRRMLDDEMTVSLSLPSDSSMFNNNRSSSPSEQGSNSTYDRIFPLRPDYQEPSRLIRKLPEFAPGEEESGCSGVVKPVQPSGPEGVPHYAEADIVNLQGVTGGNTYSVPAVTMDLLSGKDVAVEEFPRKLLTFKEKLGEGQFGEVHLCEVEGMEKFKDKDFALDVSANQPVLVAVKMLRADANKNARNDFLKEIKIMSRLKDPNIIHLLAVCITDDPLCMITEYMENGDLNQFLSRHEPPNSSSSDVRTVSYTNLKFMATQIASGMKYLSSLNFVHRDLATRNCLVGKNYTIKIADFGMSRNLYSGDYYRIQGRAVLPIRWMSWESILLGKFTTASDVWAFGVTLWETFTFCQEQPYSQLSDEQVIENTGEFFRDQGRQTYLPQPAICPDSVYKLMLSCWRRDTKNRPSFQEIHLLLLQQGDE
Sequence of FGFR2(N549H)(h) (human) (P21802 456-770 N549H limits assumed): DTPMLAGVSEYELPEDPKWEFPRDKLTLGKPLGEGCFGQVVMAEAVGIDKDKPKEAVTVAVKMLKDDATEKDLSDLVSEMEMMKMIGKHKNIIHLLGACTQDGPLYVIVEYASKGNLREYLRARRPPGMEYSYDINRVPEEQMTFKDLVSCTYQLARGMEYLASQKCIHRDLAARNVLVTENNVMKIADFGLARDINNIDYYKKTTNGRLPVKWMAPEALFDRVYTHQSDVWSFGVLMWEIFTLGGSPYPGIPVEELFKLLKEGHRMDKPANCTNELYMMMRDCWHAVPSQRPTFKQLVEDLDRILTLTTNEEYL

MMI-0100 (peptide)
% activity (CaMKIIδ(h) (human)): 89%
% activity (MRCKβ(h) (human)): 103%
% activity (JNK1α1(h) (human)): 91%
% activity (EphB1(h) (human)): 99%
% activity (GSK3β(h) (human)): 113%
% activity (WNK3(h) (human)): 100%
% activity (LKB1(h) (human)): 111%
% activity (PAK6(h) (human)): 121%
% activity (MELK(h) (human)): 74%
% activity (GRK5(h) (human)): 117%
% activity (CK2α2(h) (human)): 104%
% activity (Fms(Y969C)(h) (human)): 126%
% activity (MSK2(h) (human)): 105%
% activity (MAPK1(h) (human)): 108%
% activity (CLK2(h) (human)): 88%
% activity (MST3(h) (human)): 104%
% activity (Ros(h) (human)): 107%
% activity (FGFR1(V561M)(h) (human)): 108%
% activity (TrkA(h) (human)): 74%
% activity (MSSK1(h) (human)): 82%
% activity (CK1γ2(h) (human)): 119%
% activity (CaMKI(h) (human)): 13%
% activity (Tie2(R849W)(h) (human)): 102%
% activity (DDR2(h) (human)): 105%
% activity (CK1γ1(h) (human)): 110%
% activity (MRCKα(h) (human)): 98%
% activity (TAK1(h) (human)): 116%
% activity (SGK2(h) (human)): 103%
% activity (Plk1(h) (human)): 109%
% activity (EphA2(h) (human)): 58%
% activity (MKK7β(h) (human)): 137%
% activity (Fgr(h) (human)): 54%
% activity (IGF-1R(h) (human)): 102%
% activity [1]: 126%
% activity (CHK2(R145W)(h) (human)): 97%
% activity (CK1γ3(h) (human)): 105%
% activity (FGFR2(N549H)(h) (human)): 95%
% activity (BrSK2(h) (human)): 129%
% activity (Yes(h) (human)): 49%

MMI-0200 (peptide)
% activity (CaMKIIδ(h) (human)): 2%
% activity (MRCKβ(h) (human)): 102%
% activity (JNK1α1(h) (human)): 106%
% activity (EphB1(h) (human)): 95%
% activity (GSK3β(h) (human)): 132%
% activity (WNK3(h) (human)): 97%
% activity (LKB1(h) (human)): 99%
% activity (PAK6(h) (human)): 105%
% activity (MELK(h) (human)): 59%
% activity (GRK5(h) (human)): 135%
% activity (CK2α2(h) (human)): 88%
% activity (Fms(Y969C)(h) (human)): 88%
% activity (MSK2(h) (human)): 88%
% activity (MAPK1(h) (human)): 97%
% activity (CLK2(h) (human)): 97%
% activity (MST3(h) (human)): 95%
% activity (Ros(h) (human)): 86%
% activity (FGFR1(V561M)(h) (human)): 72%
% activity (MSSK1(h) (human)): 100%
% activity (CK1γ2(h) (human)): 104%
% activity (CaMKI(h) (human)): 21%
% activity (Tie2(R849W)(h) (human)): 89%
% activity (DDR2(h) (human)): 104%
% activity (CK1γ1(h) (human)): 98%
% activity (MRCKα(h) (human)): 103%
% activity (PAK3(h) (human)): 50%
% activity (TAK1(h) (human)): 124%
% activity (SGK2(h) (human)): 119%
% activity (Plk1(h) (human)): 128%
% activity (EphA2(h) (human)): 95%
% activity (MKK7β(h) (human)): 117%
% activity (Fgr(h) (human)): 71%
% activity (IGF-1R(h) (human)): 49%
% activity [1]: 94%
% activity (CHK2(R145W)(h) (human)): 81%
% activity (CK1γ3(h) (human)): 96%
% activity (FGFR2(N549H)(h) (human)): 104%
% activity (BrSK2(h) (human)): 102%
% activity (Yes(h) (human)): 93%

MMI-0500 (peptide)
% activity (CaMKIIδ(h) (human)): 1%
% activity (MRCKβ(h) (human)): -10%
% activity (EphB1(h) (human)): 37%
% activity (GSK3β(h) (human)): 238%
% activity (WNK3(h) (human)): 9%
% activity (LKB1(h) (human)): 51%
% activity (MELK(h) (human)): 0%
% activity (MSK2(h) (human)): 14%
% activity (MST3(h) (human)): 4%
% activity (Ros(h) (human)): 150%
% activity (TrkA(h) (human)): 24%
% activity (MSSK1(h) (human)): 22%
% activity (CaMKI(h) (human)): -1%
% activity (DDR2(h) (human)): 79%
% activity (MRCKα(h) (human)): 5%
% activity (SGK2(h) (human)): -1%
% activity [1]: 45%
% activity (CHK2(R145W)(h) (human)): 3%
% activity (BrSK2(h) (human)): 84%
